Laboratory results reported in article doi:10.1101/2021.10.12.464151.

Tests used:
[1] = biological target: Kip3_(448)^R351A-R353A (yeast); assay: BLI
[2] = biological target: Kip3_(448) K257A-R262A (yeast); assay: BLI
[3] = biological target: tubulin purified from bovine brains (αβ-tubulin heterodimer) (bovine)

fold lower affinity (against Kip3 (448)) [1]	fold weaker affinity (increased Kd) relative to wild-type Kip3 (448) [2]	plus-end dwell time on microtubules, against wild type [3]	Molecule
1.8 fold	10 fold	–	tubulin purified from bovine brains (αβ-tubulin heterodimer) (complex)
–	–	2 fold	Kip3FL^K257A-R262A (natural protein, TMR (HALO-TMR ligand) on the HALO tag) MNVPETRQSSIVVAIRVRPFTSMEKTRLVNEASGAEANFPGLGDSSLILPMSNNSDSDIDIDAEEGSTRSKRNSLLRRKVIRPEGIRKIVDCVDDRMLIFDPADRNPLNKVSDQVLNSMRARATKATASSINNSNATNKFSSQRRRHGGEIKFVFDKLFDETSSQARVYKETTSPLLDSVLDGFNSTVFAYGATGCGKTYTVSGTPSQPGIIFLAMEELFNKITDLKDEKDFEISLSYLEIYNERIRDLLKPETPSARLVIAEDTQNHIKVANLSYHHPNTVEDVMDLVVQGNINRTTSPTEANEVSSRSHAVLQIHIMQTNKLVDLTSQHTFATLSIIDLAGSERAAATRNRGIRLHEGANINRSLLALGNCINALCLNDGSRSCHIPYRDSKLTRLLKFSLGGNCKTVMIVCISPSSSHYDETLNTLKYANRAKEIKTKIIRNQQSLSRHVGSYLKMITEQKRQIEELREREEKMISLKLTKYKLNKEKIQLAINECVNRVQQTYAGVETYQVAKTLKSLILCKRRFLQMVKLEVDNLILLFEREESTAAEMQPVISNCRMISGQLYNKIHELEMKFDETDTLSSVIHQVHSIDLNKLREMEDWDETYDLVYLESCLNQISELQRNEILVNSSIMTEKLMSDPGLNSRFKFLSKWLMNRTPNIESIIQDLVHIDEEFESFARTFIANPDSNFTNTNINIINTTAADLAVPAETLQRQNFSQKKVKWTSPDLSPSPMIEPQPELEPELHQDQDAIASEVDVSMQDTTFNEQGPSTPSAPTTAVPRRKMRSSLLTHQSLLATARK
